Series [1] can be described thus: Peptide stability in simulated intestinal fluid (SIF). Type of series: in vitro ADME. The conditions noted are these: pig, simulated intestinal fluid (SIF) with porcine pancreatin, 37 °C, pH 6.8, porcine pancreatin 10 g/L, 10 µM; for remaining at 4 h, 10 µM: read-out: SIF (% remaining 4 h). The protocol: SGF was prepared by dissolving sodium chloride (0.2 g) in 50 mL of water. A volume of 0.7 mL of 10 M HCl was added to adjust the pH of the solution to 1.2 and the volume made up to 100 mL with water. […] SIF was prepared by dissolving monobasic potassium phosphate (0.68 g) in 50 mL of water and adjusting the pH to 6.8 with 1 M NaOH. The volume was subsequently made up to 100 mL with water. 200 mg porcine pancreatin (P1625, Sigma Aldrich) was gently dissolved into 20 mL preheated (37 °C) solution (10 g/L) immediately prior to the incubation.
The incubation was performed at 37 °C with gentle shaking. […] After the last timepoint, the sampling plate was mixed for 10 min on a shaking table and centrifuged 10 min at 2200 g. 70 µL resulting supernatant was diluted with 150 µL water, mixed and centrifugated before analysis by liquid chromatography high resolution mass spectrometry. […] Percent remaining at each timepoint was calculated relative to timepoint zero based on absolute peak areas.
Compounds with a SIF stability (after 4 h) above 70% are considered highly SIF stable.

In a further series the target is T1, human IL-23R (Homo sapiens, UniProt Q5VWK5).
T1 sequence (Q5VWK5 22-629): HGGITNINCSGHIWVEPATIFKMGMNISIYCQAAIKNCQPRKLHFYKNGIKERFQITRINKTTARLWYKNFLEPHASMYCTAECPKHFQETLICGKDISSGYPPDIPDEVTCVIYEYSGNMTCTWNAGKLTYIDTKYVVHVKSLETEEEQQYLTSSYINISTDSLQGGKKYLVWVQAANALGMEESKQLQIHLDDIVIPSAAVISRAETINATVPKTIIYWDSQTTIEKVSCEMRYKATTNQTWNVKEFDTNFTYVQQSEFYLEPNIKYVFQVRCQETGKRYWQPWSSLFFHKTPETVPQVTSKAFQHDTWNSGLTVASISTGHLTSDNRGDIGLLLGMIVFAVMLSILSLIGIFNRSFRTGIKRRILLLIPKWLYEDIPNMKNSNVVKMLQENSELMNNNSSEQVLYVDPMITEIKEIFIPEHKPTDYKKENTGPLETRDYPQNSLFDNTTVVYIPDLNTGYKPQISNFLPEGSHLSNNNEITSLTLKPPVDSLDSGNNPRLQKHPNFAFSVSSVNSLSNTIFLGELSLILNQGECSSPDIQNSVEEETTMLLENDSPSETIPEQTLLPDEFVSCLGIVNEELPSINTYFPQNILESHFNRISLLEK
Briefly: biochemical. A digest of the protocol:
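Membranes from HEK293 cells stably expressing Nluc-tagged human IL-23R were incubated 2 h at room temperature with test compound and a fluorophore-labelled tracer. After substrate addition, loss of BRET (TAMRA over luciferase emission) reported tracer displacement. A 4PL fit gave IC50 values.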

Series [2] concerns the target T2, Nluc-IL23R fusion protein (human, UniProt Q5VWK5 22-629).
T2 construct: range 22-629; expressed with a secretion signal in HEK293 cells; used as crude membrane preparation; also called hIL-23R; human IL-23R; not shown: Nanoluc protein from the expression plasmid N1371 (Promega), N-terminal of IL-23R
T2 sequence (looked up): T1 sequence (Q5VWK5 22-629)
Briefly: BRET competition vs TAMRA-labelled peptide, Nluc-IL23R membranes.

The values below come from EP4471049A1 (Zealand Pharma A/S, priority 2023, dated 2024).

*1 amine or outer side, *2 acyl side, *3 side chain or, on linkers, in order; H or OH if unused. Where a SMILES comes first, the peptide text is derived from it. Bridges are numbered along the chain shown (N, C = ends). Primed or numbered codes have the meaning given here. Where no end group is shown, it is not given here. [ ]: non-standard residue; d: D form. 4‑Aminomethyl‑phenylacetyl = 4-aminomethyl-phenylacetyl unit, its amine closes the lactam, O=C(Cc1ccc(CN[*:1])cc1)[*:2]; Q(pyrrolidin)(3) = Gln whose side-chain amide N is in a pyrrolidine ring, O=C(CC[C@H](N[*:1])C(=O)[*:2])N1CCCC1; 2Nal = N[C@@H](Cc1ccc2ccccc2c1)C(=O)O; AEF = NCCOc1ccc(C[C@H](N)C(=O)O)cc1; X1 = O=C(Cc1ccc(CN[*:1])cc1)[*:2]; 3Pal = N[C@@H](Cc1cccnc1)C(=O)O; Cit = NC(=O)NCCC[C@H](N)C(=O)O; αMeL = CC(C)C[C@](C)(N)C(=O)O; NMeS = CN[C@@H](CO)C(=O)O; Orn = NCCC[C@H](N)C(=O)O; Q(Me) = not defined here; Dab = NCC[C@H](N)C(=O)O; βAla = NCCC(=O)O

Usually fraction remaining stands for what is left of the initial amount, in per cent. Usually IC50 stands for the point on the concentration scale where inhibition reaches its midpoint. On to `CNC(=O)[C@H](Cc1cccnc1)NC(=O)[C@H](CCN)NC(=O)[C@@H]1CCC(=O)NCc2ccc(cc2)CC(=O)N[C@@H](C)C(=O)N[C@H]2CCC(=O)NCC[C@H](NC(=O)[C@H](CCC(N)=O)NC(=O)[C@H](Cc3c[nH]c4ccccc34)NC2=O)C(=O)N[C@@H](CCc2ccccc2)C(=O)N[C@@H](Cc2ccc3ccccc3c2)C(=O)NC(C)(C)C(=O)N1` [Compound 41, [4-Aminomethyl-phenylacetyl](1c)*AE(2c)WQ[Dab](2c)[hPhe][2-Nal][Aib]E(1c)[Dab][3-(3-Pyridyl)-Ala]-[NHMe]], for which the share remaining at 1 h, 10 µM in series [1] (1 h) was 100%. For the same molecule, in series [1], the fraction remaining at 4 h, 10 µM was 95%. Besides, at human IL-23R, the “% displacement (hIL-23R binding)” value was 104% and the midpoint of inhibition, the IC50, lay at 0.28 nM.

Regarding `CNC(=O)[C@H](Cc1cccnc1)NC(=O)[C@H](CO)NC(=O)[C@@H]1CCC(=O)NCc2ccc(cc2)CC(=O)N[C@@H](CO)C(=O)N[C@H]2CCC(=O)NCC[C@H](NC(=O)[C@H](CCC(N)=O)NC(=O)[C@H](Cc3c[nH]c4ccccc34)NC2=O)C(=O)N[C@@H](Cc2ccc(OCCN)cc2)C(=O)N[C@@H](Cc2ccc3ccccc3c2)C(=O)N[C@@](C)(CC(C)C)C(=O)N1` [Compound 31, [4-Aminomethyl-phenylacetyl](1c)*SE(2c)WQ[Dab](2c)[Y(2-aminoethoxy)][2-Nal][2-Me-Leu]E(1c)S[3-(3-Pyridyl)-Ala]-[NHMe]] ([X1]SEWQ[Dab][AEF][2Nal][αMeL]ES[3Pal]-NHMe; lactam 3-6, N-10), in series [1], the fraction remaining at 4 h, 10 µM was 41%. On human IL-23R, the “% displacement (hIL-23R binding)” value was determined as 97% and half-maximal inhibition (IC50) was put at 0.012 nM.

B1: Compound 24 (peptide)
peptide: [4‑Aminomethyl‑phenylacetyl]SEWK(Ac)[Dab][AEF][2Nal][αMeL]E[Dab][3Pal]-NHMe
modifications: lactam N-10, 3-6
SMILES: CNC(=O)[C@H](Cc1cccnc1)NC(=O)[C@H](CCN)NC(=O)[C@@H]1CCC(=O)NCc2ccc(cc2)CC(=O)N[C@@H](CO)C(=O)N[C@H]2CCC(=O)NCC[C@H](NC(=O)[C@H](CCCCNC(C)=O)NC(=O)[C@H](Cc3c[nH]c4ccccc34)NC2=O)C(=O)N[C@@H](Cc2ccc(OCCN)cc2)C(=O)N[C@@H](Cc2ccc3ccccc3c2)C(=O)N[C@@](C)(CC(C)C)C(=O)N1
B1 registered a % displacement (hIL-23R binding) in series [2] of 97%.

B2: Ref 141 (peptide)
peptide: [4‑Aminomethyl‑phenylacetyl][NMeS]CWQC[AEF][2Nal][αMeL]E[Dab]-NH2
modifications: lactam N-10; bridge 3-6; not fully specified (bridges); printed as [4-Aminomethyl-phenylacetyl](1c)*[N-Me-Ser]C(2a)WQC(2a)[Y(2-aminoethoxy)][2-Nal][2-Me-Leu]E(1c)[Dab]-[NH2]
As for B2, in series [2], the % displacement (hIL-23R binding) came out at 102%. On the same count and under the same terms, the value for [βAla][3Pal]SCWQC[AEF][2Nal][αMeL]E[dR]-NH2 (lactam N-11; linker 4-7 via 1,3‑dithio‑propan‑2‑one) [Compound 1] was 105%. In series [2], [4‑Aminomethyl‑phenylacetyl]SEW[Q(pyrrolidin)(3)][Dab][AEF][2Nal][αMeL]E[Dab][3Pal]-NHMe (lactam N-10, 3-6) [Compound 27] had a % displacement (hIL-23R binding) of 97% and an IC50 of 0.017 nM. In series [2], [4‑Aminomethyl‑phenylacetyl]SEW[Q(2Me)][Dab][AEF][2Nal][αMeL]E[Dab][3Pal]-NHMe (lactam N-10, 3-6) [Compound 30] had a % displacement (hIL-23R binding) of 104%.

[4‑Aminomethyl‑phenylacetyl]SEW[Dab](Ac)[Dab][AEF][2Nal][αMeL]E[Dab][3Pal]-NHMe (lactam (positions not given here); lactam 3-6; not fully specified (bridges)) [Compound 25]: in series [2], the % displacement (hIL-23R binding) amounted to 93% and the half-maximal inhibitory concentration (IC50) turned out to be 0.011 nM. In series [2], [4‑Aminomethyl‑phenylacetyl]SEW[Cit][Dab][AEF][2Nal][αMeL]E[Dab][3Pal]-NHMe (lactam (positions not given here); lactam 3-6; not fully specified (bridges)) [Compound 26] showed a % displacement (hIL-23R binding) of 95%.

B3: Compound 28 (peptide)
peptide: [4‑Aminomethyl‑phenylacetyl]SEW[Orn][Dab][AEF][2Nal][αMeL]E[Dab][3Pal]-NHMe
modifications: lactam N-10, 3-6
SMILES: CNC(=O)[C@H](Cc1cccnc1)NC(=O)[C@H](CCN)NC(=O)[C@@H]1CCC(=O)NCc2ccc(cc2)CC(=O)N[C@@H](CO)C(=O)N[C@H]2CCC(=O)NCC[C@H](NC(=O)[C@H](CCCN)NC(=O)[C@H](Cc3c[nH]c4ccccc34)NC2=O)C(=O)N[C@@H](Cc2ccc(OCCN)cc2)C(=O)N[C@@H](Cc2ccc3ccccc3c2)C(=O)N[C@@](C)(CC(C)C)C(=O)N1
Regarding B3, in series [2], the % displacement (hIL-23R binding) came to 97% and the concentration for half-maximal inhibition (IC50) was determined as 0.011 nM.

B4: Compound 34 (peptide)
peptide: [4‑Aminomethyl‑phenylacetyl]SEWQ[Dab][AEF][2Nal][αMeL]EH[3Pal]-NHMe
modifications: lactam N-10, 3-6
SMILES: CNC(=O)[C@H](Cc1cccnc1)NC(=O)[C@H](Cc1c[nH]cn1)NC(=O)[C@@H]1CCC(=O)NCc2ccc(cc2)CC(=O)N[C@@H](CO)C(=O)N[C@H]2CCC(=O)NCC[C@H](NC(=O)[C@H](CCC(N)=O)NC(=O)[C@H](Cc3c[nH]c4ccccc34)NC2=O)C(=O)N[C@@H](Cc2ccc(OCCN)cc2)C(=O)N[C@@H](Cc2ccc3ccccc3c2)C(=O)N[C@@](C)(CC(C)C)C(=O)N1
B4: the % displacement (hIL-23R binding) in series [2] was found to be 90%.

B5: Compound 40 (peptide)
peptide: [4‑Aminomethyl‑phenylacetyl]AEWQ[Dab][AEF][2Nal][αMeL]ES[3Pal]-NHMe
modifications: lactam N-10, 3-6
SMILES: CNC(=O)[C@H](Cc1cccnc1)NC(=O)[C@H](CO)NC(=O)[C@@H]1CCC(=O)NCc2ccc(cc2)CC(=O)N[C@@H](C)C(=O)N[C@H]2CCC(=O)NCC[C@H](NC(=O)[C@H](CCC(N)=O)NC(=O)[C@H](Cc3c[nH]c4ccccc34)NC2=O)C(=O)N[C@@H](Cc2ccc(OCCN)cc2)C(=O)N[C@@H](Cc2ccc3ccccc3c2)C(=O)N[C@@](C)(CC(C)C)C(=O)N1
Molecule B5 registered a % displacement (hIL-23R binding) in series [2] of 100%. Same read-out and setting: the same measure for [4‑Aminomethyl‑phenylacetyl]SEWQ[Dab][AEF][2Nal][αMeL]ES[3Pal]-NHMe (lactam N-10, 3-6) [Compound 31]: 97%.

B6: Compound 33 (peptide)
peptide: [4‑Aminomethyl‑phenylacetyl]SEWQ[Dab][AEF][2Nal][αMeL]EQ[3Pal]-NHMe
modifications: lactam N-10, 3-6
SMILES: CNC(=O)[C@H](Cc1cccnc1)NC(=O)[C@H](CCC(N)=O)NC(=O)[C@@H]1CCC(=O)NCc2ccc(cc2)CC(=O)N[C@@H](CO)C(=O)N[C@H]2CCC(=O)NCC[C@H](NC(=O)[C@H](CCC(N)=O)NC(=O)[C@H](Cc3c[nH]c4ccccc34)NC2=O)C(=O)N[C@@H](Cc2ccc(OCCN)cc2)C(=O)N[C@@H](Cc2ccc3ccccc3c2)C(=O)N[C@@](C)(CC(C)C)C(=O)N1
Turning to B6, the % displacement (hIL-23R binding) in series [2] was 92%. In series [2], [4‑Aminomethyl‑phenylacetyl]SEW[Q(Me)][Dab][AEF][2Nal][αMeL]E[Dab][3Pal]-NHMe (lactam N-10, 3-6; reading uncertain) [Compound 29] came in with a % displacement (hIL-23R binding) of 96% and an IC50 of 0.011 nM.
